Reference: the DeepSol protein solubility set

Test: soluble on expression in E. coli; label from the status in PepcDB or PDB records

Sequence	soluble on expression in E. coli
MLHKRFRRYSMLKRYGQIIEVLQKYGFGYIVDQIGLGSFGDFTSRLKKQEKRDEHNLSGPVRTRRILEELGPTYIKLGQLLSMRRDLVPLEYAAEFSKLQDDAPSFGFEEVELIIREELGLPVEDLFESFEKKPLACASIGQVHRAKLKNGDDVVVKVQRPGIKEVIESDLDIMYSLSRLLTEHIPEARLYRPVELVDELSRSILAEIDYSQEGWNTDRFAENFKDSEQIHIPKVYWDYTGLEHHHHHH	not soluble
MRGSHHHHHHGRSLNPLSTPQFDSTDETPASYNLAVRRAAPAVVNVYNRGLNTNSHNQLEIRTLGSGVIMDQRGYIITNKHVINDADQIIVALQDGRVFEALLVGSDSLTDLAVLKINATGGLPTIPINARRVPHIGDVVLAIGNPYNLGQTITQGIISATGRIGLNPTGRQNFLQTDASINPGNSGGALVNSLGELMGINTLSFDKSNDGETPEGIGFAIPFQLATKIMDKLIRDGRVIRGYIGIGGREIAPLHAQGGGIDQLQGIVVNEVSPDGPAANAGIQVNDLIISVDNKPAISALETMAQVAEIRPGSVIPVVVMRDDKQLTLQVTIQEYPATN	soluble
MAIKGPRKHLKRLAAPANWQLPRKVKTFTVRPSPGPHSMDKSLPLLLVVRDVLKYADNAREAKKIIQTGKILIDGLKRKEYKHPAGLMDVLSIPEMDETYLVLFDESGRISLKKTDKTDVKLCKIVNKTVVKGGNIQLNLHDGRNQIVKVSDAAKAEEDVYKTGDSVLISIPEQSIAGHVAFGEGKLAYITGGKHVGEFAKIVEVENRALYSDIVTLENKDGEKFKTVKPYVFIVGQDEPVISMLEHHHHHH	soluble
MVYVAVLANIAGNLPALTAALSRIEEMREEGYEIEKYYILGNIVGLFPYPKEVIEVIKDLTKKENVKIIRGKYDQIIAMSDPHATDPGYIDKLELPGHVKKALKFTWEKLGHEGREYLRDLPIYLVDKIGGNEVFGVYGSPINPFDGEVLAEQPTSYYEAIMRPVKDYEMLIVASPMYPVDAMTRYGRVVCPGSVGFPPGKEHKATFALVDVDTLKPKFIEVEYDKKIIEERIRAEGLPEEIIKILYHGGRP	soluble
AIATSDITSGFAAVATALEHEGQLRERLRLQRDELDVAVRSLETQLSRLHYEVDWSDAVAGARQQLRTIGSGFLELQSLVPEGMFYKYNDLWRQCSIHIVQSCLLIRFFETVHAPGPQFSDNLDQSQANDSVETCTAALVTKDEVLEMLDGEKAPTQPALRLDLEEYLLGLCGGIQELARLAANRVVLGDYATPRKLAFFCNQVYAGFRLLNFRNDSLRRSYDALKYAIQRLDSILYDLRIRKLS	soluble
MGSDKIHHHHHHMHMLLSERISLMIRGGYVGRNPNTGKLQQHLQNGYERLQKGDLDAKRFDGAESTAHSMAIIGCSGSGKTTSLRRILNTYPQVIFHPTLNRHQIVYLKIDCSHDGSLKELCLNFFRAIDKVIGSNYEKKYGMKRHGVETMLALMAQTANMFALGLLVIDEIQHLSRAKSGGSEKMLNFFVTMSNTIGIPVLFVGTPKARDIFDLDLRSSRRAAGLGSIFWNPISQYLPDQKSQNPEWIAFTNTLWKLQYLQKRDPILSDEIRDTWFDLSQGILDIVVKLFILAQLRALATGAEKITVELLKRVYEDELKLVHPMLSALRSGIPERIAQFSDLAVPDMDKKIIHLIQKISASTVESEEDRALKQLSNDDQRRIYLMLKDEFPSDSIIFAIQKIVELKPQISRQQLLASIIQAMETDNTTSQVTVTKKKNQRIGLKQWNELEDTDLRHIFSMNSTSPESIYTQLNHHGLILQMSDLLS	not soluble
MESSDIASRIWLIAGPTASGKSAYALDLAERIDGEIVNADSMQIYAGLRVLTAGPSQEETARAPHHLFQIVDPALGWSVGRWLEAATQALAEIQARGKPAIVVGGTGLYFRALTHGLADVPPVPETQREISSLLYAARGETEFREILKPLDPEAEARIESGDRQRLVRAHAVAITTGKSLTAWQTDTKPALAPGSWKGLVLDPPRAELYARCDARLAVMVEQGALDEVRALETRGLDPALPALKAVGYREFAAHLRGETSLDQALDAARQETRRYAKRQLTWFRNQTPDWERIVPLEHHHHHH	not soluble
MVENVKIIRKKIKNMYLVVNPDCSVVVKAPVHVSDEYINSFIKKKESWIKKHLENFESLNSKSVAKKYIDGELFKYLGNEYILKVYPSKKEYLEISDNFFNLYVLETNDFEKKKKIIEKFYRKRAEIELFEIFKSNYKVVTEKMPDFSVRKMKKRWGSCSFHKNKIILNERLIEKSKDCIEYVVFHELAHLRYPNHSKDFYNYLTELMPEWKVKKLKLNERHLEHHHHHH	soluble
DGKRVWLSDDELTRFIEQAETPHQRLAFLLAGRVGLRRSEIIEVCPQDLVDGPTGDHIRVWESYAKRDKYREPPVPQEVVTIAETLAYQQDDDEPLLDVAGSTVYRWVRRAADELEEETGDRGWQYLDVHDLRRTWGTYLLEQGVIPSVVMSFGGWEDWDTFRKHYLGEFS	soluble
MGSDKIHHHHHHMIHTLQAQSNEITIPFAELDLLSHLTSEFEPKLFQQKIERLHQLDPGHPLPGIAKAYAFFHEQNFSAARRQLEQARSETGDHVRAHLLLGLMSEVENFQHEAERHFLDALSLFPEEPSVHRHLAVHYHEREFFGEAASHALQYLKKIGPGGEGTLMTIDMMQSMPGHDEHVLESLYSLLFEIPEHHHDMVFHSIAANNAEMRYELFHQALDGEPDEATVFRLDSMLSLMVEHSMWAAVYDQTKDRMCRTVFDTLCRDLTYRHAGIRSIPLYLTIRSRYFMRCLLHRS	not soluble
MGSDKIHHHHHHMSMVQSAFPPRRNSVGVQVGSIRIGGGAPIVVQSMTNTDTEDEIATTVQVAQLARAGSELVRITVNTAEAARAVPGIRARLDDMGCQVPLIGDFHFNGHKLVTEYPGCARALAKYRINPGNVGHGKKRDEQFSILIEAACKYEKPVRIGVNWGSLDPELLARMMDENARSGDPRDASAVMYEALITSALQSAERAEEIGLGRDRIILSCKMSGVRDLITVYRALAARCDYALHLGLTEAGMGSKGIVASTAALSVLLLEGIGDTIRISLTPEPGGDRAREVVVAQEILQTTGLRAFVPLVAACPGCGRTTSTYFQELAESIQGYVREQMLVWREEYEGVENMTLAVMGCVVNGPGESKHANIGISLPGSGERPVAPVFVDGQKAVTLKGDNIAGEFRQIVDEYVQMKYPKKAVDAH	not soluble
MPDSPTPGRRERKKAATRQAIADAALQLFLEHGFDRVSVRDVAERADVSTTTLFAHFPSKESLVFDREQEVDAALAAAVRERPDGQGVVEALRAHALESWVPIVTDPRRARFTALVSDTPALREYSERMWMRHADTLSTVIAEELDREPDDSACAALARFVLEIPALTTGRHDPRATVETVFDLLLHGWRSQAGPRPPQADGR	not soluble
